Here are results for twelve molecules from patent publication US20140086924A1 (UNIVERSITY OF MASSACHUSETTS, published 2014).

Ends that are not written are not given here. * marks the point of attachment. Biotin = O=C1N[C@H]2[C@H](CS[C@H]2CCCCC(=O)*)N1

Experiment [1] deals with T1, full length Hsp90alpha (human, UniProt P07900 1-732).
T1 construct: also called r-Hsp90; rHsp90
Kind of experiment: competition ELISA, peptide inhibits the binding of recombinant survivin to Hsp90. For orientation: In an ELISA, binding on a coated surface is turned into a signal by an enzyme label.

Experiment [2] concerns the target T2, GST-Hsp90 (amino acids 1-732) (human, UniProt P07900 1-732).
T2 construct: also called Sepharose-GST-Hsp90; GST fusion of full length Hsp90; not shown: glutathione S-transferase (GST) frame of vector pGex-4T3
Kind of experiment: pull-down of 35S in vitro translated XIAP BIR2 with GST-Hsp90, autoradiography. The text has this: (§1) The cDNAs for XIAP and XIAP Baculovirus IAP Repeats (BIR) domains (BIR1, Met 1 to Ser 123; BIR2, Arg 124 to Pro 260; and BIR3, Ser 261 to Gln 336) were obtained from retro-transcription (SuperScript™ First Strand Synthesis System for RT-PCR, Invitrogen) of RNA extracted from HeLa cells (TRI Reagent™, Molecular Research Center Inc.), amplified by PCR, and cloned in pcDNA3 vector (Invitrogen). pcDNA3-XIAP and pcDNA3-XIAP BIR domains were translated in vitro using the TNT™ Quick Coupled Transcription/Translation System (Promega) in the presence of ³⁵S labeled methionine (Amersham), and 2, 5, and 8 μl of the reaction were incubated with 10 μg GST or GST fusion proteins as described above.
(§2) pcDNA3-XIAP and pcDNA3-XIAP BIR domains were translated in vitro as described in Example 4. […] GST-Hsp90 or GST was mixed with ³⁵S in vitro translated XIAP or its individual Baculovirus IAP Repeats: BIR1, BIR2, and BIR3. Reactions were centrifuged and proteins that associated with the pellet were detected by autoradiography.

The target in experiment [3] is T1, full length Hsp90alpha. Kind of experiment: surface plasmon resonance, biotin peptide on streptavidin chip, r-Hsp90 injected. Here is the method: Wild type Survivin peptide 77 to 91 (SEQ ID NO:22) or the corresponding C84A mutant 77-91 peptide ([…]; SEQ ID NO:23) was synthesized with an N-terminal biotin and immobilized on streptavidin coated chips (SA5) purchased from Biacore Inc. (Piscataway, N.J.). Increasing concentrations (100 nM-10 μM) of purified r-Hsp90 suspended in 10 mM HEPES, 150 mM NaCl, 3 mM EDTA, 0.005% polysorbate-20, 1 mM DTT, were then injected in […] over the immobilized peptides. A constant flow rate of […] was maintained, and the dissociation phase was followed for 300 seconds. Surfaces were regenerated using […] of 1 M NaCl/50 mM NaOH after each dissociation phase. A new injection cycle was initiated only after 10 min post-regeneration to ensure complete removal of NaCl and NaOH. The collected data were analyzed using the Biaeval 3.0 software package from Biacore Inc.
Sensorgrams (FIG. 10B) indicate binding of the Survivin peptides to Hsp90, measured by an increase in surface plasmon resonance during analyte flow over the chip surface, with the nonspecific signal from the biotin-only surface subtracted.

Experiment [4] addresses T3, GST-N-Hsp90 (amino acids 1-272 of SEQ ID NO:21) (human, UniProt O02705 1-273 (pig entry)).
T3 construct: also called N-terminal domain of Hsp90; Hsp90 N-terminal fragment; not shown: glutathione S-transferase (GST) frame of vector pGex-4T3
Kind of experiment: ELISA, peptide immobilized at rising concentrations, Hsp90 N-terminal fragment added, detection with anti-Hsp90. As to the method: (§3) ELISA experiments were performed by immobilizing recombinant Survivin (r-Survivin) ([…]) or recombinant Hsp90 (r-Hsp90) (10 μg/ml) on plastic microtiter wells (Immulon™-2, Dynatech Laboratories, Chantilly, Va.) using bicarbonate buffer, pH 9.5 (100 μl/well) for 18 hours at 4° C. Bound protein was blocked with 3% gelatin for 1 hour at 37° C., rinsed with washing buffer (TBS pH 7.4, 0.1% Tween™, 0.1% BSA) and incubated for 1 hour at 37° C. with different concentrations of a test protein to determine if the test protein bound the immobilized protein.
(§4) FIGS. 24A and 24B identify the location of P31 peptide's binding site as the N-terminus domain of Hsp90. The generation of recombinant Hsp90 fragments of the N-terminus or C-terminus is described in Example 3. ELISA experiments were performed as described in Example 2, except the indicated increasing concentrations of the P31 peptide (squares; SEQ ID NO:19) or control P33 peptide (circles; SEQ ID NO:25) were immobilized on plastic microtiter plates and incubated with the indicated Hsp90 N-terminal and C-terminal fragments. After washing, binding of the individual Hsp90 fragments to the immobilized peptides was detected with an antibody to Hsp90. Antibody to the C-terminal and N-terminal fragments of Hsp90 were obtained from BD/Transduction Laboratories and Santa Cruz Biotechnology, Inc. (Santa Cruz, Calif.), respectively.

Experiment [5] concerns the target T4, GST-C-Hsp90 (amino acids 629-732 of SEQ ID NO:21) (human, UniProt A5A6K9 630-733 (Pan troglodytes entry)).
T4 construct: not shown: glutathione S-transferase (GST) frame of vector pGex-4T3
Kind of experiment: ELISA, peptide immobilized at rising concentrations, Hsp90 C-terminal fragment added, detection with anti-Hsp90. As to the method:
as §3, §4

The next experiment addresses T5, Hsp 27 (UniProt P04792 1-205).
T5 construct: Endogenous protein of Raji cells
Kind of experiment: affinity chromatography of Raji cell extracts on immobilized peptide, Western blot. The source says: A Survivin Ile⁷⁴-Leu⁸⁷ peptide (SEQ ID NO:4) containing a binding site for Hsp90 was immobilized onto a Sulfolink™ Coupling Gel (Pierce, Rockport, Ill.), and used to fractionate Raji cell extracts. Proteins were identified in the flow trough (FT) or eluate (E) by Western blotting with the indicated antibodies. Hsp90 and Hsp70 clearly bound the Survivin peptide including residues Ile⁷⁴-Leu⁸⁷. The anti-Hsp70 antibodies were obtained from Abcam, Cambridge, Mass. (cat. No. ab6535).
On the technique in general: A western blot detects proteins with antibodies after separation by electrophoresis.

The target of experiment [6] is T2, GST-Hsp90 (amino acids 1-732). Kind of experiment: pull-down of 35S in vitro translated XIAP BIR3 with GST-Hsp90, autoradiography.
Excerpt: as §1, §2

The target of experiment [7] is T1, full length Hsp90alpha. Kind of experiment: ELISA, peptide immobilized, recombinant Hsp90 added, detection with anti-Hsp90 (n=2); no blank bar on the sheet. As to the method:
Indicated synthetic peptides from the Survivin core sequence Lys 79-Leu 87 (SEQ ID NO:24) were synthesized carrying single alanine substitutions at each indicated position (alanine scanning mutagenesis). Individual peptides were immobilized at indicated increasing concentrations on plastic microtiter plates, incubated with recombinant Hsp90, and binding to the various substrates was determined with an antibody to Hsp90 by ELISA and quantified by absorbance at OD₄₀₅. […] In contrast, no differences were observed between the wild type peptide sequence and alanine substitutions of the residues flanking this sequence, Lys 79, Ala 85, Phe 86, and Leu 87.

Experiment [8] addresses T1, full length Hsp90alpha. The experiment in a line: competition ELISA: peptide (20 µg/ml) preincubated with Hsp90, then added to immobilized full length Survivin (the competitor). Here is the method: as §3
ELISA experiments were performed essentially as in Example 2 with the following variations. 20 μg/ml of each recombinant Survivin peptide (expressed in E. coli) was preincubated with Hsp90 at 2.5 mg/ml for 16 hours at 4° C. After binding and blocking of full length Survivin to wells in a microtiter plate, the preincubated mixtures of Hsp90 and Survivin peptides were added to the wells and incubated for 1 hour at 37° C. Wells were washed, incubated with primary antibody, washed again, and bound antibody was quantified as described above. Each experiment was repeated three times and the standard deviation is shown. The twelve amino acid Survivin peptide including Lysine 79-Lysine 90 (K79-K90; SEQ ID NO:3) was an especially effective inhibitor of Hsp90-Survivin binding interactions.

T5 sequence (P04792 whole entry): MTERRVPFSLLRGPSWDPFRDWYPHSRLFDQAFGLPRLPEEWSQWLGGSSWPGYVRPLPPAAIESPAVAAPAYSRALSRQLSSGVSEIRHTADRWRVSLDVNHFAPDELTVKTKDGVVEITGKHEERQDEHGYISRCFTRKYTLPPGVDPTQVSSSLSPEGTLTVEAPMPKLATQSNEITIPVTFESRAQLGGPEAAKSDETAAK
T4 sequence (A5A6K9 630-733): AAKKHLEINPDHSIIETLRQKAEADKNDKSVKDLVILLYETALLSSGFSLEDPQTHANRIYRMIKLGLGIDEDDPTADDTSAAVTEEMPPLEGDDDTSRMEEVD

With RQIKIWFQNRRMKWKKKHSSG [shorter cell permeable Survivin peptide (Antennapedia carrier sequence fused to Survivin K79-G83)], in the experiment with full length Hsp90alpha [1], the binding result is recorded as “binds”.

B1: XIAP BIR2 fragment (Arg 124 to Pro 260) (other, human, UniProt P98170 124-260, looked up)
chain: RDHFALDRPSETHADYLLRTGQVVDISDTIYPRNPAMYSEEARLKSFQNWPDYAHLTPRELASAGLYYTGIGDQVQCFCCGGKLKNWEPCDRAWSEHRRHFPNCFFVLGRNLNIRSESDAVSSDRNFPNSTNLPRNP
notes: range 124-260; 35S-labelled, in vitro translated
Consider B1, for which the binding result in experiment [2] is on record as “no binding”.

B2: wild type Survivin peptide 77 to 91 (peptide)
peptide: Biotin-HKKHSSGCAFLSVKK
notes: Immobilized on streptavidin coated Biacore chips; also called wild type peptide
As for B2, in the experiment with full length Hsp90alpha [3], the affinity, expressed as Kd, was 83.8 nM and the “off-rate, fold slower than the C84A peptide (SEQ ID NO:23)” value turned out to be 10 fold.

B3: C84A mutant Survivin 77-91 peptide (peptide)
peptide: Biotin-HKKHSSGAAFLSVKK
notes: Immobilized on streptavidin coated Biacore chips; also called C84A peptide
Regarding B3, the binding result with full length Hsp90alpha [3] is given as “binds”.

B4: P31 survivin peptide (Antennapedia carrier sequence fused to Survivin K79-L87) (peptide)
peptide: Biotin-RQIKIWFQNRRMKWKKKHSSGCAFL
notes: also called Survivin cell permeable peptide
Take B4: the binding result with full length Hsp90alpha [1] was “binds”; in experiment [4], “binds”; in experiment [5] it was “no binding (tested: 0.25 mg/ml)”.

B5: Survivin Ile74-Leu87 peptide (peptide)
peptide: IDDHKKHSSGCAFL
notes: Immobilized on Sulfolink Coupling Gel; also called Survivin peptide (Ile74-Leu87)
Turning to B5, the binding result with Hsp 27 is listed as “no binding”.

B6: XIAP BIR3 fragment (Ser 261 to Gln 336) (other, human, UniProt P98170 261-336, looked up)
chain: SMADYEARIFTFGTWIYSVNKEQLARAGFYALGEGDKVKCFHCGGGLTDWKPSEDPWEQHAKWYPGCKYLLEQKGQ
notes: range 261-336; 35S-labelled, in vitro translated
As for B6, the binding result in experiment [6] is listed as “no binding”.

B7: Survivin core sequence peptide Lys 79-Leu 87 (peptide)
peptide: KHSSGCAFL
notes: Synthetic, immobilized on plastic microtiter plates; also called Survivin peptide (K79-L87)
As for B7, in the experiment with full length Hsp90alpha [7], the binding result is listed as “binds”. Regarding KHSSGCAFA (also called L87A) [Survivin Lys 79-Leu 87 peptide with alanine substitution of Leu 87], in the experiment with full length Hsp90alpha [7], the binding result is recorded as “binds”.

Regarding KHSSGCAAL (also called F86A) [Survivin Lys 79-Leu 87 peptide with alanine substitution of Phe 86], the binding result with full length Hsp90alpha [7] is given as “binds”.

With AHSSGCAFL (also called K79A) [Survivin Lys 79-Leu 87 peptide with alanine substitution of Lys 79], the binding result with full length Hsp90alpha [7] is on record as “binds”.

B8: Survivin peptide Lysine 79-Lysine 90 (peptide)
peptide: KHSSGCAFLSVK
notes: Called both synthetic and recombinant (expressed in E. coli) in the same paragraph; also called K79-K90
Turning to B8, in the experiment with full length Hsp90alpha [8], the binding result is reported as “binds”.

What is called Kd is the concentration at which binding is half-saturated.
